Reference: paper PMC6107761, “Preferential Binding of Mg^2+ Over Ca^2+ to CIB2 Triggers an Allosteric Switch Impaired in Usher Syndrome Type 1J” (Frontiers in Molecular Neuroscience, 2018)
Positions count from the first letter of the chain named. Names and notes keep the numbering of the source.

B1: human wild type calcium and integrin binding protein 2 (CIB2) (natural protein, UniProt O75838-1 1-187, looked up)
chain: MGNKQTIFTEEQLDNYQDCTFFNKKDILKLHSRFYELAPNLVPMDYRKSPIVHVPMSLIIQMPELRENPFKERIVAAFSEDGEGNLTFNDFVDMFSVLCESAPRELKANYAFKIYDFNTDNFICKEDLELTLARLTKSELDEEEVVLVCDKVIEEADLDGDGKLGFADFEDMIAKAPDFLSTFHIRI
notes: 21.6 kDa; complete cDNA; Non-covalent dimer by SEC, Ferguson plots and DLS under reducing conditions; Tag removed by TEV protease; also called WT CIB2; WT; source: E. coli BL21 DE3, purified (His-trap, TEV cleavage, second His-trap flow-through); not shown: 6xHis, N-terminal, cleaved
B2: human E64D CIB2 (natural protein, UniProt O75838-1 1-187, looked up)
chain: B1 chain with E64D
notes: point mutation E64D made by site-directed mutagenesis on the complete cDNA; variant associated with Usher syndrome type 1J / non-syndromic hearing loss; After elution treated as the WT protein (TEV cleavage of the His tag); Dimer by SEC and Ferguson plots; also called p.E64D; USH1J-related variant; not shown: 6xHis, N-terminal, cleaved
B3: peptide of the membrane proximal segment of the cytoplasmic domain of α7B integrin, residues 1101-1116 (peptide)
peptide: Ac-LLLWKMGFFKRAKHPE-NH2
notes: Integrin α7B, membrane proximal segment of the cytoplasmic domain, residues 1101-1116 of Uniprot entry Q13683; source: synthetic peptide (GenScript)

Columns and labels:
[1] = molecular target: B3; assay: other fluorescence titration; Trp emission spectra of 4 μM peptide alone and with fixed concentrations of WT CIB2 (8 μM for α7B_M; 2, 4 and 8 μM for Scrb); 20 mM Hepes, 150 mM KCl, 1 mM DTT pH 7.5, 37°C, 1 mM Mg2+ and 1 mM Ca2+; details: both partners purified
[2] = molecular target: B3; assay: other fluorescence titration; 4 μM α7B_M peptide titrated with increasing CIB2; blue shift of the peptide's Trp emission peak (excitation 295 nm); 20 mM Hepes, 150 mM KCl, 1 mM DTT pH 7.5, 37°C, 1 mM Mg2+ and 1 mM Ca2+; apparent Kd; details: both partners purified
[3] = molecular target: the molecule itself; assay: SEC; analytical SEC, Superose 12 10/300GL; 20 mM Tris pH 7.5, 150 mM KCl, 1 mM DTT with 3 mM EGTA or 2 mM EGTA + 3 mM Mg2+ or 3 mM Mg2+ + 2 mM Ca2+; WT 100 μM, E64D 70 μM; MW from a calibration plot
[4] = molecular target: B1; assay: other fluorescence titration; 4 μM α7B_M peptide titrated with increasing CIB2; blue shift of the peptide's Trp emission peak (excitation 295 nm); 20 mM Hepes, 150 mM KCl, 1 mM DTT pH 7.5, 37°C, 1 mM Mg2+ and 1 mM Ca2+; apparent Kd; details: both partners purified
[5] = molecular target: B2; assay: as above; details: both partners purified

Row | Binder | fold increase in the maximal fluorescence emission of the peptide [1] [fold] | stoichiometry N [2] [CIB2 chains per peptide] | stoichiometry N [3] | Kd [4] [µM] | Kd [5] [µM]
1 | B1 | 1.7 | 2 |  |  | 
2 | B2 |  | 2 | 2 |  | 
3 | B3 |  |  |  | 4.99 | 3.1
